The numbers were not newly measured in article PMC12469268, which cites them from elsewhere.

As a reminder, the Ki is a measure of affinity in units of concentration, obtained from inhibition or displacement. Usually Kd stands for the free concentration of one partner at which half of the binding sites on the other are occupied at equilibrium, for simple one-to-one binding.

Series [1] has as its target α2C-adrenoceptor (Homo sapiens) (UniProt P18825).
Series [2] addresses α2B-adrenoceptor (Homo sapiens) (UniProt P18089).
The target of series [3] is α2A-adrenoceptor (Homo sapiens) (UniProt P08913).
Series [4] addresses integrin αvβ3 (Homo sapiens) (UniProt P06756).
For series [5], the target named is α1A-adrenoceptor (Homo sapiens) (UniProt P35348). Briefly: 3H-prazosin competition binding.

As for ρ-Da1b (from UniProt P86419), the figures for the Ki in series [1], in series [2] and in series [3] were 38 nM, 73 nM and 14 nM, respectively.

As for “CTX A5 (cardiotoxin A5) (from UniProt P62375)”, the dissociation constant Kd in series [4] was 300 nM.

With AdTx1 (from UniProt P85092), in series [5], the Ki is 0.35 nM.
